The values below come from FireProtDB (doi:10.1002/prot.20309).

For the data set the following is noted: 25 °C, GdnHCl, Phosphate 10 mM, whole UniProt chain shown.
[1] abbreviates: Bos taurus, pH 2, CD, transition: 3.

B1: Beta-lactoglobulin-1A/1C wild type, P04119 (protein)
chain: MRCLLLTLGLALLCGVQAVEVTPIMTELDTQKVAGTWHTVAMAVSDVSLLDAKSSPLKAYVEGLKPTPEGDLEILLQKRENDKCAQEVLLAKKTDIPAVFKINALDENQLFLLDTDYDSHLLLCMENSASPEHSLVCQSLARTLEVDDQIREKFEDALKTLSVPMRILPAQLEEQCRV
B1: the denaturant m value amounted to 2.2 kcal/mol/M (Sus scrofa, pH 2, Fluorescence); 3.5 kcal/mol/M (Sus scrofa, pH 2, NMR); 4.2 kcal/mol/M (Sus scrofa, pH 6, NMR). The “denaturant midpoint (higher = more stable)” value (from here on “denaturant midpoint”) by setting is: (Sus scrofa, pH 2, Fluorescence) 1 M; (Sus scrofa, pH 2, NMR) 0.7 M; (Sus scrofa, pH 6, NMR) 1.1 M. Besides, the unfolding free energy by setting is: (Sus scrofa, pH 2, Fluorescence) 2.1 kcal/mol; (Sus scrofa, pH 2, NMR) 2.3 kcal/mol; (Sus scrofa, pH 6, NMR) 4.6 kcal/mol.

B2: Beta-lactoglobulin wild type, P02754 (protein)
chain: MKCLLLALALTCGAQALIVTQTMKGLDIQKVAGTWYSLAMAASDISLLDAQSAPLRVYVEELKPTPEGDLEILLQKWENGECAQKKIIAEKTKIPAVFKIDALNENKVLVLDTDYKKYLLFCMENSAEPEQSLACQCLVRTPEVDDEALEKFDKALKALPMHIRLSFNPTQLEEQCHI
In the case of B2, under setting [1], the denaturant m value was 1 kcal/mol/M, the “denaturant midpoint” value was found to be 3.8 M and the unfolding free energy turned out to be 12.8 kcal/mol. Moreover, for the setting “Bos taurus, pH 6, CD”, the denaturant m value was 4.1 kcal/mol/M, the “denaturant midpoint” value was 2.8 M and the unfolding free energy was 11.5 kcal/mol.
